Assay results: the supplement of paper PMC10065799, “High-throughput profiling of sequence recognition by tyrosine kinases and SH2 domains using bacterial peptide display” (eLife, 2023)

Assays:
AncSZ = experiment: phosphorylation enrichment, bacterial display (enrichment ratio); higher = better substrate or ligand; peptides without Tyr show the background
FGFR3 = FGFR3 (UniProt P22607); experiment: as above
Fyn = Fyn (UniProt P06241); experiment: as above
Fes = Fes (UniProt P07332); experiment: as above
Chain of Fes (P07332 whole entry, looked up): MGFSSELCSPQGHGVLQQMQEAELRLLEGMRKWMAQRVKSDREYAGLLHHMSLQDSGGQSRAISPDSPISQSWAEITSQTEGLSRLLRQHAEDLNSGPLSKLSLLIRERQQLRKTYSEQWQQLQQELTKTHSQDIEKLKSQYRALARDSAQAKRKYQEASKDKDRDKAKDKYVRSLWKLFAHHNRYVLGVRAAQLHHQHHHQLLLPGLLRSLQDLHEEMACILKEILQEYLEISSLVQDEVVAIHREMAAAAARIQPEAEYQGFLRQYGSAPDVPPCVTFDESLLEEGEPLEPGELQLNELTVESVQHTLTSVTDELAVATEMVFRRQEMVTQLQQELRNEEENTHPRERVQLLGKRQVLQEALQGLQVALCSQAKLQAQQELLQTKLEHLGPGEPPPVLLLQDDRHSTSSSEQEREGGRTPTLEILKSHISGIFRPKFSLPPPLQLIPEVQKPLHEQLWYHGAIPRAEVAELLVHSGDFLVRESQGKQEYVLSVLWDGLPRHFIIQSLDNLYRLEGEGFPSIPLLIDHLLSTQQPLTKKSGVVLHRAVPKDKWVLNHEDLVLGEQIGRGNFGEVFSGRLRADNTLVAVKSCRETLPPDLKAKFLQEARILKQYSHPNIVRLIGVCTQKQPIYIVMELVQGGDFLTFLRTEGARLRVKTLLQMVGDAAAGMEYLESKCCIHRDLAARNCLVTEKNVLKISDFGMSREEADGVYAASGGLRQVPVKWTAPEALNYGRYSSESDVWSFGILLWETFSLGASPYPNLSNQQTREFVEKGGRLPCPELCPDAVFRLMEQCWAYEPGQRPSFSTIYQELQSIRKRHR

MERTK = MERTK (UniProt Q12866); experiment: as above
Jak2 = Jak2 (UniProt O60674); experiment: as above
FGFR1 = FGFR1 (UniProt P11362); experiment: as above
Chain of FGFR1 (P11362 whole entry, looked up): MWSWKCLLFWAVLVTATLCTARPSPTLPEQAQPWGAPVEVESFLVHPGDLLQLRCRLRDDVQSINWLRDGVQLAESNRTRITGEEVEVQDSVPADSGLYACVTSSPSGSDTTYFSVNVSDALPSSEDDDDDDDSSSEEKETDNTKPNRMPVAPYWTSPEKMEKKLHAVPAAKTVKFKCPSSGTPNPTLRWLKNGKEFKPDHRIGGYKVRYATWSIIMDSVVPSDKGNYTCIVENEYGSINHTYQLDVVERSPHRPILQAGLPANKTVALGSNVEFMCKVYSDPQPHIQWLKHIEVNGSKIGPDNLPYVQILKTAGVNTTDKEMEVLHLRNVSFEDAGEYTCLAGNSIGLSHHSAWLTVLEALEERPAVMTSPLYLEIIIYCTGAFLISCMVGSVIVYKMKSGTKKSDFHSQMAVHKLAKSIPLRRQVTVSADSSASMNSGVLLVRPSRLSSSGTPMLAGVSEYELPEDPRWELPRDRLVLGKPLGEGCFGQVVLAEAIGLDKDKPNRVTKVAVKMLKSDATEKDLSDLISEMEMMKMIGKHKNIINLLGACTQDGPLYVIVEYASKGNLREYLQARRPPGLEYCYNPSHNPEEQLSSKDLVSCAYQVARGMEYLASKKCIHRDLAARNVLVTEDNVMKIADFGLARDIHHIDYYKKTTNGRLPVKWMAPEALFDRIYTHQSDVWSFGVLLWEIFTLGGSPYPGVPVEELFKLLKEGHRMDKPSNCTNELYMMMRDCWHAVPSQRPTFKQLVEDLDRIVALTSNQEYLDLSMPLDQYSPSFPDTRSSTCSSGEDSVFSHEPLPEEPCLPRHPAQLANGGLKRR

c-Abl (mouse) = experiment: as above
Fer (mouse) = experiment: as above
EPHB1 = EPHB1 (UniProt P54762); experiment: as above
Chain of EPHB1 (P54762 whole entry, looked up): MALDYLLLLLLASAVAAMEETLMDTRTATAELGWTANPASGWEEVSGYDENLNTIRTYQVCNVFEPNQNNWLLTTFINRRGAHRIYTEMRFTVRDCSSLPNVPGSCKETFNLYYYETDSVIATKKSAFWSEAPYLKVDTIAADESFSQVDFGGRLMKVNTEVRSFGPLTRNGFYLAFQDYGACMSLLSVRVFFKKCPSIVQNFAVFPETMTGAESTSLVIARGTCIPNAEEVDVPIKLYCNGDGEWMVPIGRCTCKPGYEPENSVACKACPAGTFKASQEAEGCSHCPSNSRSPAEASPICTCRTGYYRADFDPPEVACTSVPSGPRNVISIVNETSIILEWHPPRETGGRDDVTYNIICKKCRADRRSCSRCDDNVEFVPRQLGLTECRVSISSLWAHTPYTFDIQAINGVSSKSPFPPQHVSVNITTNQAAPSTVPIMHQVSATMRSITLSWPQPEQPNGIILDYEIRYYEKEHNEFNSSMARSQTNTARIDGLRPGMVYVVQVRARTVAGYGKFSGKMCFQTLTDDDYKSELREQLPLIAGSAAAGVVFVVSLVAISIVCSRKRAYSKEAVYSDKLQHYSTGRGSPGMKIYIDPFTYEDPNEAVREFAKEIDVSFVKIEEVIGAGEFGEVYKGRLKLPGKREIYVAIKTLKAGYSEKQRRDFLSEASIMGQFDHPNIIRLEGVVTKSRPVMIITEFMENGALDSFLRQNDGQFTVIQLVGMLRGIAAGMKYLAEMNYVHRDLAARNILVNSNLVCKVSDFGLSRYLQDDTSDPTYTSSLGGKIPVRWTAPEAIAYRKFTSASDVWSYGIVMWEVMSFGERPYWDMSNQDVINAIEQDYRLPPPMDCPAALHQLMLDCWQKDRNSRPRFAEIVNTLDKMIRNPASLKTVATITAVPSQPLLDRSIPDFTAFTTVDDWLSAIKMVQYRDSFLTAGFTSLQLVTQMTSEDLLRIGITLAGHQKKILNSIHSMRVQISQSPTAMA

c-Src = experiment: as above
Hck = Hck (UniProt P08631); experiment: as above
Chain of Hck (P08631 whole entry, looked up): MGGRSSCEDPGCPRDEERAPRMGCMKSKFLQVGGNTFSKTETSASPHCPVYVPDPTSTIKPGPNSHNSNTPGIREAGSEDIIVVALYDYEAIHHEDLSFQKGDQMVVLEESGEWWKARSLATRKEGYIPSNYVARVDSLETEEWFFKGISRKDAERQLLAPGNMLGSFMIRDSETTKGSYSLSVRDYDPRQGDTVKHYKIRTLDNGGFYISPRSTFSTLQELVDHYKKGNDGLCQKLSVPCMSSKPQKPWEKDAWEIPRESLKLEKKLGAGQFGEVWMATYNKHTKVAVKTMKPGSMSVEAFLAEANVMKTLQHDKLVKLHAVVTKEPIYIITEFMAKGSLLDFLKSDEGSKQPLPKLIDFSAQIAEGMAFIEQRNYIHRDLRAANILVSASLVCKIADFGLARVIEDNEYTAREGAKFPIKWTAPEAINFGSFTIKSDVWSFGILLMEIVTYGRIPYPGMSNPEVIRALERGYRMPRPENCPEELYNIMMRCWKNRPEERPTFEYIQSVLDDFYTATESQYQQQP

EPHB2 = EPHB2 (UniProt P29323); experiment: as above
Grb2 SH2 = Grb2 SH2 (UniProt P62993); experiment: SH2 binding enrichment of the phosphorylated peptide, bacterial display (enrichment ratio); higher = better substrate or ligand; peptides without Tyr show the background
Chain of Grb2 SH2 (P62993 whole entry, looked up): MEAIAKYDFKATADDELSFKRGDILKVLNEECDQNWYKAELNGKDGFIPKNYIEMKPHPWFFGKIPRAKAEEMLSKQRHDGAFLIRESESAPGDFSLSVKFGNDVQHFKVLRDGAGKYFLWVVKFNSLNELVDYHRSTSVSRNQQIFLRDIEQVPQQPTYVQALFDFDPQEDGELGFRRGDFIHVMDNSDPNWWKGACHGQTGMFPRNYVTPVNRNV

c-Src SH2 = experiment: as above
SHP2-C SH2 = experiment: as above
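Wherever SH2 binding enrichment of the phosphorylated peptide, bacterial display is given: peptide library displayed on the E. coli surface as eCPX fusions, selected cells deep-sequenced, score is each peptide's frequency after selection divided by its frequency in the input.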
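Wherever phosphorylation enrichment, bacterial display is given: 11-residue human phosphosite peptides and single-mutation variants displayed on the E. coli surface, counted by deep sequencing, each peptide's frequency after selection divided by its frequency in the unselected input library; frequency after pTyr selection over input frequency; kinase dosed for 20-30% of maximal phosphorylation in three min.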

Chain of FGFR3 (P22607 whole entry, looked up): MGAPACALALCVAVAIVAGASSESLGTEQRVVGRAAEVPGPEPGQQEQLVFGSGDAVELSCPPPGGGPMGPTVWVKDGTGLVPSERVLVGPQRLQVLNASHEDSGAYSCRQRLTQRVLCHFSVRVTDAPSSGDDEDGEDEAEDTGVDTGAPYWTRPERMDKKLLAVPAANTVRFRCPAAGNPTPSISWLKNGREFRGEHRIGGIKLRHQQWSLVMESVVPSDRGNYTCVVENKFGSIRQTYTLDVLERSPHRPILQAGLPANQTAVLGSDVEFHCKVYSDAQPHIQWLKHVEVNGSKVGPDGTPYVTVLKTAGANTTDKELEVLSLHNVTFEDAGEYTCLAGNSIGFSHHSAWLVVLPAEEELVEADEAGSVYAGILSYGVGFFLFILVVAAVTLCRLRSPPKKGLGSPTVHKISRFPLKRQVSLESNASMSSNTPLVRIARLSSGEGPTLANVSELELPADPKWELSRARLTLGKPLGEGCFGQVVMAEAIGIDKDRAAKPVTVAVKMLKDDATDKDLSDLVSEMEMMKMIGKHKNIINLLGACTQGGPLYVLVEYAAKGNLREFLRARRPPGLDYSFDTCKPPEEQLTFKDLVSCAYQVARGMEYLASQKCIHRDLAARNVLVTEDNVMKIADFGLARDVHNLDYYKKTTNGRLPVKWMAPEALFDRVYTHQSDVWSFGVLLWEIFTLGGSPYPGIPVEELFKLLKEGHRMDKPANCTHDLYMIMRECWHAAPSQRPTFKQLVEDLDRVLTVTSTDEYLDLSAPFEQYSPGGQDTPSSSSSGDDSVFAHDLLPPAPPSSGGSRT
Chain of Fyn (P06241 whole entry, looked up): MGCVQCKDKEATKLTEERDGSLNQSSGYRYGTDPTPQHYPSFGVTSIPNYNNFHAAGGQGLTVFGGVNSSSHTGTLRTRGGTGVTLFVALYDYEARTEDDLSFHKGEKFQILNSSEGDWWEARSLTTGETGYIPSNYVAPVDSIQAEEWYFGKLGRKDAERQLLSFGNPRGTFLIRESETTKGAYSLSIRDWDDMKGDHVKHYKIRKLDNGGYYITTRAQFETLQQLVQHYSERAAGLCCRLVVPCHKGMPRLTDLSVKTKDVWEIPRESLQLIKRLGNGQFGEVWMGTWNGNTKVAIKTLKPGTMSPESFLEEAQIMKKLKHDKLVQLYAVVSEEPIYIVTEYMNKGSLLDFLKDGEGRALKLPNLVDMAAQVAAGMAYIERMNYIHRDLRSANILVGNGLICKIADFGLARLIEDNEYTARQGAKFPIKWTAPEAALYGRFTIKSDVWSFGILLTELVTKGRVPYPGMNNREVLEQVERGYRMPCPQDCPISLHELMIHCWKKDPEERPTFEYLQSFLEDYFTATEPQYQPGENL

| Sequence | phosphorylation enrichment (AncSZ) | phosphorylation enrichment (FGFR3) | phosphorylation enrichment (Fyn) | phosphorylation enrichment (Fes) | phosphorylation enrichment (MERTK) | phosphorylation enrichment (Jak2) | phosphorylation enrichment (FGFR1) | phosphorylation enrichment (c-Abl (mouse)) | phosphorylation enrichment (Fer (mouse)) | phosphorylation enrichment (EPHB1) | phosphorylation enrichment (c-Src) | phosphorylation enrichment (Hck) | phosphorylation enrichment (EPHB2) | SH2 binding enrichment (Grb2 SH2) | SH2 binding enrichment (c-Src SH2) | SH2 binding enrichment (SHP2-C SH2) |
| --- | --- | --- | --- | --- | --- | --- | --- | --- | --- | --- | --- | --- | --- | --- | --- | --- |
| RPLVVYPWTQR [HBB_Y36_L32P] | 0.728 | 0.45 | 0.468 | 0.748 | 0.389 | 0.445 | 0.473 | 0.509 | 0.358 | 1.11 | 0.446 | 0.407 | 0.695 | 0.809 | 0.623 | 0.718 |
| HSGIFYKPESL [L2HGDH_Y103_YF] | 1.34 | 0.934 | 0.642 | 1.82 | 0.934 | 2.08 | 1.11 | 3.79 | 1.05 | 0.793 | 1.45 | 0.704 | 1.11 | 0.641 | 0.507 | 0.831 |
| HLTLVYGGIFL [FBP1_Y259_R255L] | 1.61 | 1.15 | 2.72 | 1.81 | 0.507 | 1.96 | 0.745 | 1.4 | 0.699 | 0.743 | 2.71 | 2.09 | 0.849 | 0.808 | 0.544 | 0.883 |
| RNAAEYLLSSG [ABL1_Y139] | 0.765 | 0.446 | 0.35 | 0.723 | 0.294 | 0.667 | 0.456 | 0.353 | 0.596 | 0.38 | 0.34 | 0.48 | 0.345 | 0.998 | 0.566 | 0.595 |
| LLRFLYFFVCS [SLC34A2_Y109_G106R] | 0.948 | 1.22 | 0.519 | 1.59 | 0.744 | 1.69 | 0.72 | 0.697 | 0.573 | 0.606 | 0.587 | 0.704 | 0.585 | 2.1 | 1.73 | 1.96 |
| SVIKEYQIRQV [USH2A_Y3623_G3618S] | 0.648 | 0.509 | 0.352 | 0.68 | 0.328 | 0.567 | 0.377 | 0.409 | 0.415 | 0.505 | 0.381 | 0.443 | 0.346 | 0.88 | 0.472 | 0.653 |
| AKLDIYKRKVE [VWA3B_Y918_N916D] | 0.589 | 0.382 | 0.485 | 0.707 | 0.291 | 0.475 | 0.298 | 0.411 | 0.317 | 0.295 | 0.37 | 0.414 | 0.283 | 0.871 | 0.45 | 0.732 |
| ALKWGYTVKGI [OAT_Y158_R154L] | 1.13 | 0.72 | 0.519 | 1.24 | 0.304 | 1.01 | 0.426 | 0.659 | 0.445 | 0.447 | 0.31 | 0.341 | 0.547 | 0.872 | 0.625 | 0.845 |
| RLYARYFQGDL [PDK3_Y337] | 1.24 | 0.923 | 0.6 | 1.26 | 0.711 | 1.57 | 0.684 | 1.18 | 0.543 | 0.705 | 0.763 | 0.511 | 0.664 | 0.889 | 0.549 | 0.556 |
| DHCNQYEQQKM [CHD7_Y75_Y72C] | 0.842 | 0.682 | 0.534 | 0.823 | 0.443 | 0.699 | 0.424 | 0.661 | 0.499 | 0.545 | 0.541 | 0.499 | 0.714 | 0.971 | 0.825 | 0.879 |
| ANVIRYFPTQA [SLC25A4_Y81] | 0.78 | 0.492 | 0.585 | 0.648 | 0.546 | 0.61 | 0.524 | 0.541 | 0.547 | 0.42 | 0.674 | 0.558 | 0.502 | 1.09 | 0.64 | 0.673 |
| LFDPDYMKVIL [CYP4A22_Y104_YF] | 1.76 | 1.44 | 0.675 | 4.91 | 0.502 | 1.23 | 1.5 | 0.958 | 1.2 | 1.42 | 0.675 | 0.759 | 1.43 | 0.775 | 0.392 | 0.564 |
| MTRDIYRASYY [ALK_Y1278_A1274T] | 0.725 | 0.676 | 0.888 | 0.702 | 0.827 | 0.63 | 0.844 | 2.42 | 0.462 | 0.598 | 1.66 | 1.17 | 0.579 | 0.876 | 0.786 | 0.704 |
| AALVQYFMEHH [PTPN11_Y80_E76A_YF] | 0.798 | 0.727 | 0.439 | 1.05 | 0.401 | 0.772 | 0.573 | 0.665 | 0.476 | 0.623 | 0.441 | 0.519 | 0.541 | 1.34 | 0.946 | 1.42 |
| FPSLPYSPVSS [CAMKK2_Y128_C123Y_YF] | 0.789 | 0.592 | 0.479 | 0.707 | 0.489 | 0.526 | 0.539 | 0.507 | 2.1 | 0.452 | 0.457 | 0.59 | 0.445 | 0.857 | 0.672 | 0.863 |
| PADCRYYAFPQ [GAMT_Y222] | 3.91 | 8.15 | 2.3 | 1.7 | 14.4 | 6.5 | 10.9 | 5.14 | 10.4 | 12.1 | 4.71 | 3.84 | 12.2 | 0.898 | 3.02 | 0.847 |
| MGGSVYFSYPD [HIKESHI_Y55] | 1.02 | 1.41 | 3.16 | 1.07 | 1.36 | 1.09 | 1.49 | 0.752 | 0.401 | 0.728 | 3.42 | 1.65 | 0.815 | 0.978 | 0.843 | 1.94 |
| KIPGRYFETGS [PAX2_Y72_L69P_YF] | 0.604 | 0.531 | 0.466 | 1.31 | 0.464 | 0.783 | 0.471 | 0.633 | 0.427 | 0.382 | 0.521 | 0.396 | 0.546 | 1.37 | 0.606 | 0.726 |
| WPLKWYVPECI [ZAP70_Y506_A507V] | 1.06 | 0.804 | 0.428 | 1.18 | 0.382 | 1.02 | 0.496 | 0.757 | 0.44 | 0.688 | 0.387 | 0.572 | 0.618 | 0.841 | 0.499 | 0.488 |
| LEIETDRRLLD [KRT12_Y429_Y429D] | 2.31 | 1.4 | 1.29 | 3.18 | 0.93 | 2.8 | 1.35 | 2.64 | 1.06 | 1.13 | 1.41 | 1.08 | 1.03 | 1 | 0.538 | 1.11 |
| LKGQVYILVRE [ASS1_Y359_G362V] | 1.43 | 0.982 | 0.343 | 1.36 | 0.375 | 1.14 | 0.481 | 0.921 | 0.328 | 0.682 | 0.334 | 0.454 | 0.652 | 0.878 | 0.525 | 0.896 |
| FLRKEYGGLNV [CBR3_Y81] | 0.584 | 0.437 | 0.45 | 0.618 | 0.385 | 0.615 | 0.393 | 0.412 | 0.375 | 0.4 | 0.334 | 0.404 | 0.519 | 0.667 | 0.435 | 0.432 |
| KDKLPYPFDDP [GPX2_Y125_YF] | 1.04 | 0.638 | 0.556 | 1.01 | 0.512 | 0.821 | 0.567 | 0.581 | 0.533 | 0.457 | 0.486 | 0.498 | 0.792 | 0.815 | 0.454 | 0.854 |
| THQKSYQPGRK [CEFIP_Y210_N208K] | 0.437 | 0.362 | 0.371 | 0.472 | 0.308 | 0.349 | 0.433 | 0.35 | 0.464 | 0.273 | 0.322 | 0.52 | 0.432 | 0.887 | 0.514 | 0.408 |
| AVSHRYDLGGL [QPRT_Y162_A158V] | 0.515 | 0.42 | 0.337 | 0.527 | 0.379 | 0.467 | 0.347 | 0.379 | 0.344 | 0.403 | 0.385 | 0.415 | 0.524 | 0.849 | 0.6 | 0.76 |
| RTLSEYARPHV [RERE_Y1259] | 1.14 | 0.51 | 0.668 | 1.11 | 0.443 | 0.871 | 0.606 | 31.7 | 0.468 | 0.832 | 0.454 | 0.683 | 0.852 | 0.755 | 0.553 | 0.532 |
| FRNSLYAPDFS [FAM92A_Y226_YF] | 0.755 | 0.743 | 1.02 | 0.899 | 8.67 | 0.812 | 0.891 | 0.563 | 0.911 | 2.04 | 1.25 | 1.23 | 1.35 | 0.674 | 0.511 | 0.736 |
| GINDDHGQLKN [NBN_Y679_Y679H] | 0.757 | 0.591 | 0.537 | 0.763 | 0.473 | 0.591 | 0.471 | 0.524 | 0.426 | 0.448 | 0.382 | 0.484 | 0.475 | 0.817 | 0.481 | 1.05 |
| RNVLVYDKLNV [ROR2_Y624] | 0.933 | 0.787 | 5.08 | 0.64 | 3.88 | 0.632 | 0.614 | 2.12 | 3.9 | 1.97 | 3.99 | 13.9 | 1.97 | 1.06 | 0.908 | 0.535 |
